Experimental data published in PMC4721865.

Tests used:
[1] = molecular target: ASP1-GST fusion protein (aspartic protease ASP-1 of C. elegans) (C. elegans) (UniProt G5EEI4); experiment: ITC; 25 C, 20 mM HEPES pH 8.0; 21.16 uM Cry6Aa titrated into 2.20 uM ASP-1 in the cell, 20 injections of 10 uL
[2] = molecular target: ASP1-GST fusion protein (aspartic protease ASP-1 of C. elegans) (C. elegans) (UniProt G5EEI4); experiment: ELISA; plates coated with 0.5 ug ASP-1/well in 20 mM HEPES pH 8.0, blocked with PBST 3% BSA, increasing concentrations of biotinylated toxin; specific binding = total minus binding with 1000-fold molar excess of unlabeled Cry6Aa

Substance	Kd [1] [µM]	Kd [2] [µM]
crystal protein Cry6Aa (unlabeled) (from UniProt Q45757 1-475) (natural protein)	0.126	–
biotin-labeled crystal protein Cry6Aa (from UniProt Q45757 1-475) (natural protein)	–	0.146
